{"source": "a protein production outcome set (Wang et al. 2014)"}
{"assay": "label from the status in PepcDB records"}
{"sequence": "MADATRIPDSVTLPELTLRGVLLGALITVIFTASNVFLGLKVGLTFSSAIPAAVISMSVLRMFRDANILENNMVQTQASAAGTLSAIIFILPALVMMGHWQGFPFWQTLAICGAGGMLGVMFTIPLRHIMVVQSDLPYPEGVAAAEILRVGSAEAPDTAPGRRGASGMGDILAGGGVAALVSLATGGLRVLGDSFSWWGQLGASVFRLPMGFSLALLGAGYLIGIVAGVAMLVGLLIAWLVAVPVLTATTPMPDGQSISAFANSLWASQVRFIGAGVIGVGAIWTLATLFMPMVRGVRTSFAAFGRSGEAAYGSAPRTERDLPSRWISLITLALVAVLVGVFAAFLQPAVLSPGARWGLVAYAVVFAFVFGFLVAAACGYMAGLIGSSTSPISGVGIVAIVLVSLLMLAIQRGDGLLATPQGLQMGIALAIFTTSAVVAVASISNDNLQDLKTGWLVGATPWRQQVALLIGCVVGAAVISPVLELLYNAYGFGDALPRPGMDPSQALAAPQATLMLAIAQGIFTHQLNWTMILIGMGVGVALIVIDQVLRRTCRVARLPVLAVGIGIYLPPSASAPIVVGAVLAWLLEGALRRRAAAAGQDYERYAEGPNRRGVLVASGLIVGESLVGVLLAAVIGATGDEAPLAVVGAGFGPTAEWLGFVVFAAVAVWIYRRVVRTRPEQA", "protein production": "failed"}
{"sequence": "MADDDVLFEDVYELCEVIGKGPFSVVRRCINRETGQQFAVKIVDVAKFTSSPGLSTEDLKREASICHMLKHPHIVELLETYSSDGMLYMVFEFMDGADLCFEIVKRADAGFVYSEAVASHYMRQILEALRYCHDNNIIHRDVKPHCVLLASKENSAPVKLGGFGVAIQLGESGLVAGGRVGTPHFMAPEVVKREPYGKPVDVWGCGVILFILLSGCLPFYGTKERLFEGIIKGKYKMNPRQWSHISESAKDLVRRMLMLDPAERITVYEALNHPWLKERDRYAYKIHLPETVEQLRKFNARRKLKGAVLAAVSSHKFNSFYGDPPEELPDFSEDPTSS", "protein production": "failed"}
{"sequence": "MADDQGRGRRRPLNEDDSSTSRGSGDGPRVKVFRGSSSGDPRADPRIEASRERRALEEAPRREGGPTERKPWGDQYDYLNTRPAELVSKKGTDGVPVMLQTNFFRLKTKPEWRIVHYHVEFEPSIENPRVRMGVLSNHANLLGSGYLFDGLQLFTTRKFEQEITVLSGKSKLDIEYKISIKFVGFISCAEPRFLQVLNLI", "protein production": "failed"}
{"sequence": "MADFVAASGQLGFWTYCLLMIGSVFSGMTLIGVAGLAFTTGYANVWERIIGPPFAIAFGTILIGYKLFNLKDKNGILTIQDYLAFRYDDPKIIRILAGLISAVTCFVYLIGQYTAIGVVSYVVLGIPYWLGAVIAAVIVVAYVMSGGMFSTAWTTFLQSILMLLGIYVTVPFIIAWVGGFEAMNQALAAMPEIQNATRGVAENFMFAKYLSKPFAPASVPLAGWVYNLTLFGITVPLGLMVAPHIVNNMLTFRKIEYTRWGPLVMYVIGFSAIFLTALAGMAARVAWAKGMIDIPSLTLGSIEVKWSDMAYPTIASKALPYWLFVLLLPTILAGVMSTTDRLILTAANNISYDVLRNALGKNLSENALKKVNMLVVPLIGFGSLLIALFPQQLLAWFIWAALSLMTNCFFFPIMLGLYWDRMTKNAARLSMIAGFVVTLATFAIYGKTIYIAGIPAYSVLPGFVASFVLAVGVSLLEKG", "protein production": "failed"}
{"sequence": "MADGATAVRRGLSGATRLSARFTADAETGTRQGMQALPTSRRLCASLRSLPERALAMLPAVVLALLPVIAMLLALAPGNARVAEDCALRVEGQARHADDQRIMSTVRALAQALGEVAQATPPDEREAKLIRSISPVRYGEGPWDYVILSRGTVHLYTPGMEGAAGVDFANATDARGVPFVQEMQSRAVLGGGFTEWTARRADGSTETRRVYSLVVPGTEYWLGAWTTPDGATTAKNEARNGVLITADHAAHRAALWGIMAGLPAALVLHRLLTASQRLRQEKDRR", "protein production": "failed"}
{"sequence": "MADGVLAVSQEGFNTLQSYNVGEKYTADLWIQQGGLKSTASVVSFSVDKALLDSMNIADGTSYELLPADCYQLTKSSVDIPANERLLKGELTYDPAKIQELSGYDHLKYVLPLRATSSGMPFVSGRSVLLLGFKVSEPIVTIMNAGVEEINLAEVKELPVQIGVPFTNKWEISCRLESRQSVIDAYNTAHGTYFSMLPSDAYVTPETPILHSGVNQVTATYKLKDDILPGNYMLPVQIAEVTSDATIRADKDVYAAYSIIKEGDKLSKTDWKIVSFTTEEASGEGSNNGHAKHLIDGNIETFWHSRWQGGSDPLPYEIIIDMNHRVKIAQIELLPRGRGSNNPIKVVRFEASEDGTNWESIGQFGFTNQDAALKYYVKSSTARYIKLVIPDGVGNGTVAAIRELDVRGTVVNLEHHHHHH", "protein production": "not failed"}
